These results are taken from US20110300138A1 (published 2011).

The target of test [1] is TSHR (thyroid stimulating hormone receptor), full length human (human) (UniProt P16473). Briefly: negative control; competitor ^125I-K1-70 IgG, TSHR coated tubes; 0.1 µg/mL in HBD.
Test [2] shares this target. Briefly: negative control; competitor ^125I-K1-70 IgG, TSHR coated tubes; 0.01 µg/mL in HBD.
Test [3] has as its target thyroid stimulating hormone receptor (TSHR), full length human TSHR (human) (UniProt P16473). Kind of test: TSH-biotin competition ELISA, TSHR coated wells; negative control, 1 µg/mL in HBD serum.
Test [4] shares this target. Kind of test: TSH-biotin competition ELISA, TSHR coated wells; negative control, 100 µg/mL in HBD serum. For orientation: An ELISA detects its analyte on a solid surface through an enzyme-linked reagent.
Test [5] has the same target. Kind of test: TSH-biotin competition ELISA, TSHR coated wells; negative control, 0.01 µg/mL in HBD serum.
Test [6] addresses TSHR (thyroid stimulating hormone receptor), full length human (human) (UniProt P16473). Briefly: negative control; competitor ^125I-K1-70 IgG, TSHR coated tubes; 0.01 µg/mL in assay buffer.
In test [7] the target is thyroid stimulating hormone receptor (TSHR), full length human TSHR (human) (UniProt P16473). Briefly: TSH-biotin competition ELISA, TSHR coated wells; negative control, 0.1 µg/mL in assay buffer.
For test [8], the target named is human thyroid stimulating hormone receptor (TSHR), full length (human) (UniProt P16473). Briefly: 125I-K1-70 Fab (competitor) binding to TSHR coated tubes; negative control MAb 0.01 µg/mL in HBD serum.
For test [9] the target is unchanged. Briefly: 125I-K1-70 Fab (competitor) binding to TSHR coated tubes; negative control MAb 1 µg/mL in assay buffer.
For test [10], the target named is TSH receptor (TSHR) coated on tubes (human) (UniProt P16473). Briefly: inhibition of 125I-K1-70 IgG binding to TSHR coated tubes; negative control 0.01 µg/mL in HBD serum pool.
For test [11] the target is unchanged. Briefly: inhibition of 125I-K1-70 IgG binding to TSHR coated tubes; negative control 0.001 µg/mL in HBD serum pool.
In test [12] the target is TSH receptor (TSHR), full length human, coated on tubes (human) (UniProt P16473). Briefly: inhibition of 125I-TSH binding to TSHR coated tubes; 0.01 µg/mL, diluted in HBD serum pool; mean of duplicates.
Test [13] deals with TSH receptor (TSHR) coated on tubes (human) (UniProt P16473). Briefly: inhibition of 125I-K1-70 IgG binding to TSHR coated tubes; negative control 100 µg/mL in HBD serum pool; duplicate determination.
Test [14] concerns the target TSH receptor (TSHR), full length human, coated on tubes (human) (UniProt P16473). Briefly: inhibition of 125I-K1-18 IgG binding to TSHR coated tubes; competitor 125I-K1-18 IgG; negative control sample at 1 µg/mL in HBD serum.
For test [15] the target is unchanged. Briefly: inhibition of 125I-K1-18 IgG binding to TSHR coated tubes; competitor 125I-K1-18 IgG; negative control sample at 100 µg/mL in HBD serum.
Test [16] concerns the target TSH receptor (full length human TSHR) (human) (UniProt P16473). Kind of test: competition ELISA: inhibition of M22 Fab-peroxidase (competitor) binding to TSHR coated wells; negative control at 0.01 µg/mL diluted in assay buffer.
For test [17], the target named is TSH receptor (full length human TSHR) coated on tubes (human) (UniProt P16473). Kind of test: 125I-TSH binding inhibition read against NIBSC 90/672; 100 ng/mL, in serum.
Test [18] has as its target TSHR (thyroid stimulating hormone receptor), full length human (human) (UniProt P16473). Kind of test: competitor ^125I-K1-70 IgG, TSHR coated tubes; 100 µg/mL in assay buffer.
The target of test [19] is TSHR (full length) coated on tubes (human) (UniProt P16473). Briefly: inhibition of 125I-K1-18 Fab (competitor) binding to TSHR coated tubes; test sample 1 µg/mL in assay buffer.
The target of test [20] is TSH receptor (TSHR), full length human, coated on tubes (human) (UniProt P16473). Briefly: inhibition of 125I-K1-18 IgG binding to TSHR coated tubes; competitor 125I-K1-18 IgG; sample at 100 µg/mL in assay buffer.
Test [21] deals with TSH receptor (full length human TSHR) (human) (UniProt P16473). Kind of test: competition ELISA: inhibition of M22 Fab-peroxidase (competitor) binding to TSHR coated wells; test sample at 100 µg/mL diluted in HBD serum pool.
For test [22], the target named is human TSH receptor (full length) coated on ELISA plate wells (human) (UniProt P16473). Briefly: TSH-biotin binding inhibition ELISA, TSHR coated wells; 10 µg/mL in assay buffer.
For test [23] the target is unchanged. Briefly: TSH-biotin binding inhibition ELISA, TSHR coated wells; 10 µg/mL in HBD serum pool.
The target of test [24] is TSH receptor (TSHR) coated on tubes (human) (UniProt P16473). Kind of test: inhibition of 125I-K1-70 IgG binding to TSHR coated tubes; sample 0.01 µg/mL in assay buffer.
The target of test [25] is thyroid stimulating hormone receptor (full length human TSHR) (human) (UniProt P16473). Briefly: ELISA, inhibition of TSH-biotin binding to TSHR coated wells; 0.01 µg/mL, diluted in assay buffer.
Test [26] concerns the target TSH receptor (TSHR), full length human, coated on tubes (human) (UniProt P16473). Briefly: inhibition of 125I-K1-18 IgG (competitor) binding to TSHR coated tubes; test sample at 1 µg/mL in assay buffer.
The target of test [27] is thyroid stimulating hormone receptor (full length human TSHR) (human) (UniProt P16473). Briefly: ELISA: inhibition of M22 Fab-peroxidase (competitor) binding to TSHR coated wells; 10 µg/mL, diluted in HBD serum pool.

As to 5B3 IgG (antibody), the Inhibition of binding (%) was -3.6% in [1]; -5.8% in [2]; -3.5% in test [3]; -2.3% in test [4]; -5.1% in [5]; -3.6% in [6]. The Inhibition of binding (%) in test [7] is -7.8%; in [8], -5.3%; in test [9] it was -1.7%; in [10], 3.2%; in test [11] it was 3.7%; in test [12], 2.6%. The Inhibition of binding (%) was 1.1% in test [13], -6.2% in test [14], 29.4% in test [15] and 2.2% in test [16].

In test [17], M22 IgG (antibody) came in with a units/L of 9.9 units/L and a units/mg of 99 units/mg.

With 9D33 IgG (antibody), the Inhibition of binding (%) in test [18] was determined as 61.4%; in [19], 66.5%; in [20], 72.5%; in test [21], 65.9%.

B1: 5C9 IgG (antibody, from another filing, V domains shown)
VH: EVQLVESGGGLIQPGGSLRLSCAASGFTVSSNYMSWVRQAPGKGLEWVSVTYSGGSTSYADSVKGRFTISRDNSKNTLYLQMNSLRAEDTAVYYCARGGRYCSSISCYARSGCDYWGQGTLVTVSS
VL: AIQMTQSPSSLSASVGDRVTITCRASQSISNYLNWYQQKPGKAPKLLIYAASSLQSGVPSRFSGSGSGTDFTLTISSLQPEDFATYYCQQSYSSPSTTFGQGTKLEIK
For B1, the % inhibition of TSH-biotin binding came out at 58.2% in test [22] and 42.6% in [23]. The Inhibition of binding (%) in [24] is 4.5%; in test [25] it was 7.5%; in [26] it was 48%; in test [27] it was 13%.
